Assay results taken from a protein production outcome set (Wang et al. 2014).

Assay: label from the status in PepcDB records

Row | Sequence | protein production
1 | VWRPKSVSRDDVMVTEYGAVTSERPLPAGTTYSATSVTPPDDPEVLRTSGRDYPADIESRYTGVPASTSAQVGPFTDRLTEDSDSPYQTAATIEQWLEANKNYSLNVSQPPEDDVASEFIFQMDKGYCEYFATSMVVMLRSQDIPARYVVGYSTGERTGQNQYTVRGMNAHAWVEVYFEGVGWVKFDPTPGQ | failed
2 | WIAQIHKTKTNYFLNLLKEGKIPLRPGIKRLLDELRKNNIKIAIATTTTYENVSTLLQCTLGDSALEWFDVIGAGDIVSKKKPAPDIYEWVLNQLNLPAEACIAIEDSENGLKSATAAGIKTIITISEYTREQNFSYAALVLEDLESTDHTHQIAAQSFDKPLSVQTLSDLLN | failed
3 | WILASTTEGAPSVAPLNVTVFLNESSDNVDIRWMKPPTKQQDGELVGYRISHVWQSAGISKELLEEVGQNGSRARISVQVHNATCTVRIAAVTRGGVGPFSDPVKIFIPAH | not failed
4 | WRKDIVLPKDQAKGVRPYNPKFKDSEYFSRYNALINDERLIEFAKKNNYKITFFPHPDIQQQIVDFEKHDYVEFADYNSSYQMLFNSSNIMITDFSSVAFDFAYEKKPVIYYQYEKSYHFKLDYYDYKKMGFGDVLENHNSLVDKVIYYMKNNSRMEDKYRKRVDNFFAYTDKNNRNRIYNAILE | not failed
5 | YDDEDYQAEQDRREEQRRAAIAQTGVEVIPVHGVLVSRGSHLNACETMTSYEGLRAALNKAITDPMVEHIVLDIDSPGGSAVGAFELAADIRAATKIKPITGLVNFMAYSGGYLIASACTEVVVSLTSGVGSIGVVASHMDRSKMIEGMGVKVTTVFAGAHKNDLSPNEPITEQSLQVLNEVVQESYQLFTTHVAEYRGRDVADIIATEAACYRGSSAIAIGLADRLESPQ | failed
6 | YDLLCRERDNFRILVAITNAVLSRLDIDELVSEVAKEIHHYFNIDAISIVLRSHRKNKLNIYSTHYLDEHHPAHEQSEVDEAGTLTERVFKSKEMLLINLNERDPLAPYERMLFDTWGNQIQTLCLLPLMSGKTMLGVLKLAQCEEKVFTTANLKLLRQIAERVAIAVDNALAYQEIHRLKER | failed
7 | YKGQYFTPPHIAQAMAAMTLMDCHSIIEKRGFMKLQEPTCGSGVMIIGSYNHLRQEHFNPQQQLWVRAQDLDFTTAMMCYIQMTLLHIPGEVIIGNTLT | failed
8 | YLDLWQTQDAKIRAKLAAVFQAEQNLNEAAIAYCLARALPEETAIFFANSMVVRYAEFFWQLNDQQILPYFNRGANGIDGTLSTALGIAENHSPAVLLTGDLALLHDINGFLTLSKFTGSLTIIVINNQGGGIFEMLPIAEEKDIFEDYFATPQTVEFSKVCDLYGIEYQAIQTKADLMQTCAILPPRGVRLLEVKTNRNQAMTWLKDLFQ | failed
9 | YLKDLSLLISNDKQTILYAPTWKGNSVSKVKNDVFQIISDMNYLEEKIGSDYNVLIKVHPFLYSEASKVSELKGKLIPDFIDTNQLLSTVDILITDYSSIFFDFLVTDRPILFYMWDADDYNKQRGKYINNEDLPGPVLYNVRELVEAIGNIHQVKSEFQTNYEKNKVKFTNHDDGNVTKRVVEKIFK | failed
10 | YNFSFLSPQGLSFASQGPSAPFWSVFTPRVIGTAVARYNFAARDMRELSLREGDVVRIYSRIGGDQGWWKGETNGRIGWFPSTYVEEEGIQ | failed
11 | YRALYPFEARNHDEMSFNSGDIIQVDEKTVGEPGWLYGSFQGNFGWFPCNYVEKMPSSENEKAVSPKKALLPPTVSLSAT | not failed
12 | YTFIGNSPVPKSYSLSEMRDAFIKFFEKRGHKFLKPYPVVPRWREDVLLVNASIYDFQPHVTSGIVRPPGNPIVMSQPSIRMNDVDLVGITGRHLTSFEMLCHDSFNTKDKTVYWKEETVHYCYDFLTEGLGIDGKLISFKEKPWSGGGNAGNALEVFVRGLEVATLVFMDMKEDPNGPYEIDGIRYSKMDMRIVDTGYGLERLTWLSQGTPTVYQAIYPDIIQHVMKNSSVSDIDEEFLSEVVKASVMKEP | failed
13 | YTISEVVAFTGLTAHTLRWYERIGLMPHIDRSHTGQRRYSNRDLDWLAFVGKLRLTGMPVADMVRYAEMVREGDGTYTQRYEILESTRRDVLARIAELQDTLAVLDHKISFYADAGRALTSERSR | failed
14 | YTVEPVQDGERSVTLRRAGGTPLVAAMYHLPAAGSPDFVGLDLAATILADTPSGRLYHALVPTKLASGVFGFTMDQLDPGLAMFGAQLQPGMDQDKALQTLTATLESLSSKPFSQEELERARSKWLTAWQQTYADPEKVGVALSEAIASGDWRLFFLQRDRVRDAKLDDVQRAAVAYLVRSNRTEGRYIPTEKPQRAPLAQRADLAAV | not failed
15 | YYFKEYHLPYPKGVIFSGNIPPCFYHKSDPPLHLLPDKIFLEEVSKLGGIPGKIIKEKQFVEYFVPIIKNDFKLIENYYFQQKQEKFPVKSLICSGKDDKFRVKDLVQWENYFIDKCSISLFKGGHFYIDDNIASLCNQIKDFIY | failed
16 | YYLIVSQLLGDTASVKLLVPPGANPHLFSLKPSDAKTLEEADLIVANGLGLEPYLEKYREKTVFVSDFIPALLLIDDNPHIWLDPFFLKYYIVPGLYQVLIEKFPEKQSEIKQKAEEIVSGLDTVIRDSFKALLPYTGKTVVMAHPSFTYFFKEFGLELITLSSGHEHSTSFSTIKEILRKKEQIVALFREPQQPAEILSSLEKELRMKSFVLDPLGVNGEKTIVELLRKNLSVIQEALK | not failed
